Biological target: T1, complement factor H, homozygous Tyr-402/Val-62 allotype (human), P08603
T1 chain: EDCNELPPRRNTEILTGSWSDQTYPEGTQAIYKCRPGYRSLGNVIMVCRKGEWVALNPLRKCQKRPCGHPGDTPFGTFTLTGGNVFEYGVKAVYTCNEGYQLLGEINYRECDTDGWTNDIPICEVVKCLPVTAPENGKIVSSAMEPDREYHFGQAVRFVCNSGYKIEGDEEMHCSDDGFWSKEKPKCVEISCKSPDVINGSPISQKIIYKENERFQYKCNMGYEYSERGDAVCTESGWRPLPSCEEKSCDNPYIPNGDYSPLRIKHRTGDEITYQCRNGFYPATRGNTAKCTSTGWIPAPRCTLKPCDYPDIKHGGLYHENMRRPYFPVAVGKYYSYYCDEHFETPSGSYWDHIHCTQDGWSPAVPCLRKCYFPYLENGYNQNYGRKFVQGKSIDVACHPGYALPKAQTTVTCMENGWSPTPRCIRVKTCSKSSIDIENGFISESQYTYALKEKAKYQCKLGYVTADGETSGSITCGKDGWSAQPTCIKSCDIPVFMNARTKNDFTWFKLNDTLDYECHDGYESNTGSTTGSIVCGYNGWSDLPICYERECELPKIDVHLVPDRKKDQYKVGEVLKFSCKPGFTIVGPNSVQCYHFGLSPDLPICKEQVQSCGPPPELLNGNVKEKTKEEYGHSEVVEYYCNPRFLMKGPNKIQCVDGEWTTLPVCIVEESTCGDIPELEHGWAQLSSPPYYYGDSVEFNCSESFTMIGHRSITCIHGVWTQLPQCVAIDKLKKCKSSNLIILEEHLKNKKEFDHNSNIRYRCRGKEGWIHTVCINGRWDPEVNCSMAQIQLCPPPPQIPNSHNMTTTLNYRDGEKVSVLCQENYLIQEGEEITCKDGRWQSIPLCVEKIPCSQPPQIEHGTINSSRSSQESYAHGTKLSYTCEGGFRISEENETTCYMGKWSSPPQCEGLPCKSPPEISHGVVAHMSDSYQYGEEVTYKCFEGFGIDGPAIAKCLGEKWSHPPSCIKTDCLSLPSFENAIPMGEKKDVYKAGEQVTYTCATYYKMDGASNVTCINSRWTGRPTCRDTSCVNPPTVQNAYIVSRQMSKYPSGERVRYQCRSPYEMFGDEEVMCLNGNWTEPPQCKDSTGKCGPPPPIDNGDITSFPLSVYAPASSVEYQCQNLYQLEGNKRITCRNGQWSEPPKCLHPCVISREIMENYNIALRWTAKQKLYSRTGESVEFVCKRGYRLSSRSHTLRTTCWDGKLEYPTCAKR
Assay: SPR
Details: natural protein, eight biantennary disialylated N-glycans, sites as printed: Asn-511, Asn-700, Asn-784, Asn-804, Asn-864, Asn-892, Asn-1011, Asn-1077, remark: other sources report otherwise

- Kd: > 40 µM
B1: complement factor H, homozygous Tyr-402/Val-62 allotype, P08603 19-1231 (protein)
chain: T1 chain

From paper PMC6222095
